Results from paper PMC6614801.

Biological target: T1, SuhB (inositol mono-phosphatase SuhB), wild type (E. coli), P0ADG4
T1 chain: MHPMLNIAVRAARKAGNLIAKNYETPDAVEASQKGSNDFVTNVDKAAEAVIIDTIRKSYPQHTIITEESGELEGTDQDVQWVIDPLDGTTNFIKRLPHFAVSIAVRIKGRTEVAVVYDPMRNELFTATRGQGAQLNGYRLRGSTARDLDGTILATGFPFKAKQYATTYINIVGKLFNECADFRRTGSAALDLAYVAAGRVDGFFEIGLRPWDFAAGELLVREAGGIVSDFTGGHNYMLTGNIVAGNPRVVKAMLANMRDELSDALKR
Experiment: SEC-MALS; 60 μl (15 nmol) of SuhB on Superdex 200 increase 10/300; 20 mM HEPES pH 7.5, 50 mM NaCl, 0.02% (w/v) NaN3
Conditions: remark: other sources report otherwise

B1: SuhB (inositol mono-phosphatase SuhB), wild type, P0ADG4 1-267 (natural protein)
chain: T1 chain
Binder B1 has a stoichiometry N of 2.
